Source: PMC6838200, “Polarisome scaffolder Spa2-mediated macromolecular condensation of Aip5 for actin polymerization” (Nature Communications, 2019)

B1: Aip5-C-3m (L1150A, N1162A, S1165C) (domain or fragment, S. cerevisiae, UniProt P43597 1110-1233, looked up)
chain: DSTTQTTEQSKKNNDKPQDVITTSEIRKLNEKEPVYIYTSAAGGGFHMIPRTARLCTILTANRIPFTYRDLGTDDEARKVWKTFSKGRSLPGVVRGHNDLIGNWEEIEEANEDYKLRELIYDTI
notes: Aip5 (YFR016C), budding yeast, residues 1110-1233 with three point mutations; Homodimer in the crystal; also called triple mutant Aip5-C-3m; source: E. coli BL21 (DE3), purified
B2: Aip5 loop peptide (TSLAGGGFHM) (peptide)
peptide: TSLAGGGFHM
notes: also called loop containing peptide; peptides of Aip5 loop

Tests used:
[1] = target: the molecule itself; assay: crystal structure; X-ray; sitting drop vapor diffusion at 20 °C; Aip5-C by SeMet-MAD, Aip5-C-3m by molecular replacement
[2] = target: G-actin (monomeric actin used in microscale thermophoresis) (rabbit, UniProt P68135 1-377); assay: MST; 2 µM G-actin mixed 1:1 with Aip5 loop peptide (highest stock 2 mM); G-buffer with 0.05% Tween 20; 25 °C; Kd mode fit; settings: both partners purified

Binder	binding result [1]	Kd [2]
B1	binds	
B2		99 ± 76 µM
